Source: patent US20240158497A1
Several values for one entry are separate records, joined by “and”; a condition that tells them apart may be missing. Equal values may be shown once.

Columns and labels:
[1] = molecular target: full length human GP130 (L2V natural variant) on HEK293/Stat3-luc/gp130-2X Sort cells (human) (UniProt P40189); experiment: FACS, secondary antibody alone on HEK293/gp130 2X Sort cells
[2] = molecular target: extracellular domain of human LEPR, GPI-anchored, on HEK293/hLEPR-GPI cells (human) (UniProt P48357); experiment: FACS, secondary antibody alone on HEK293/hLEPR-GPI cells, no Leptin
[3] = molecular target: extracellular domain of human LEPR, GPI-anchored, on HEK293/hLEPR-GPI cells (human) (UniProt P48357); experiment: FACS, secondary antibody alone on HEK293/hLEPR-GPI cells, 1 µM Leptin
[4] = molecular target: mutant human LEPR (Y1141F) on HEK293.STAT3.Luc.GP130.hLEPR (Y1141F) cells (human) (UniProt P48357); experiment: cell-based or functional assay
[5] = molecular target: wild-type human GP130 on HEK293.STAT3.Luc.GP130 reporter cells (human) (UniProt P40189); experiment: cell-based or functional assay
[6] = molecular target: full length human GP130 (L2V natural variant) on HEK293/Stat3-luc/gp130-2X Sort cells (human) (UniProt P40189); experiment: FACS, 200 nM antibody on HEK293/gp130 2X Sort cells
[7] = molecular target: extracellular domain of human LEPR, GPI-anchored, on HEK293/hLEPR-GPI cells (human) (UniProt P48357); experiment: FACS, 200 nM antibody on HEK293/hLEPR-GPI cells, no Leptin
[8] = molecular target: extracellular domain of human LEPR, GPI-anchored, on HEK293/hLEPR-GPI cells (human) (UniProt P48357); experiment: FACS, 200 nM antibody on HEK293/hLEPR-GPI cells, 1 µM Leptin
[9] = molecular target: gp130 expressed endogenously on IMR-32/STAT3-Luc cells (human) (UniProt P40189); experiment: cell-based or functional assay
Chain of gp130 expressed endogenously on IMR-32/STAT3-Luc cells (human) (P40189 23-918): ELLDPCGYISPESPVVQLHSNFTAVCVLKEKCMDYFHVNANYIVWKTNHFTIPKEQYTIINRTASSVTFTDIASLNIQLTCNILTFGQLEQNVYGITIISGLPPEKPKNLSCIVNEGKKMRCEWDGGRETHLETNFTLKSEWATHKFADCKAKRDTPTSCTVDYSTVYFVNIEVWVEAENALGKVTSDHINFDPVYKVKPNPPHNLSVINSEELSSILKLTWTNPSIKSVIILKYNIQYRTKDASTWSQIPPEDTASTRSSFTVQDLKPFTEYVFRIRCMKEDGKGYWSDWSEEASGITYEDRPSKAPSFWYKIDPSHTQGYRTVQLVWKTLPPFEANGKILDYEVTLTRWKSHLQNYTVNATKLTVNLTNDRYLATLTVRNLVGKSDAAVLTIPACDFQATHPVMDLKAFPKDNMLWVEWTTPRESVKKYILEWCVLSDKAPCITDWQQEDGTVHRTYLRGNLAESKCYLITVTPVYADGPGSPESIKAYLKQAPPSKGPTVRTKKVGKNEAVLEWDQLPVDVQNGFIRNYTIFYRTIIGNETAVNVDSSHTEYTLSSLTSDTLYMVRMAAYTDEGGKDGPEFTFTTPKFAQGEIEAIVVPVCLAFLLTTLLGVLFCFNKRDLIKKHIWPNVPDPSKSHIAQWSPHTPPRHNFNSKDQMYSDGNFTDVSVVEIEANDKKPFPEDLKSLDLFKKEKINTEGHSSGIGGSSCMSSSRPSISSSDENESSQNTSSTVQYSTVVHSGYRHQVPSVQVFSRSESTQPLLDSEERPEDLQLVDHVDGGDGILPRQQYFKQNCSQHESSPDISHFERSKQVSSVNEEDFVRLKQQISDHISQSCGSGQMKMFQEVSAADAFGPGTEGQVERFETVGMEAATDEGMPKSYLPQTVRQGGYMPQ

Chain of extracellular domain of human LEPR, GPI-anchored, on HEK293/hLEPR-GPI cells (human) (P48357 22-839 limits assumed): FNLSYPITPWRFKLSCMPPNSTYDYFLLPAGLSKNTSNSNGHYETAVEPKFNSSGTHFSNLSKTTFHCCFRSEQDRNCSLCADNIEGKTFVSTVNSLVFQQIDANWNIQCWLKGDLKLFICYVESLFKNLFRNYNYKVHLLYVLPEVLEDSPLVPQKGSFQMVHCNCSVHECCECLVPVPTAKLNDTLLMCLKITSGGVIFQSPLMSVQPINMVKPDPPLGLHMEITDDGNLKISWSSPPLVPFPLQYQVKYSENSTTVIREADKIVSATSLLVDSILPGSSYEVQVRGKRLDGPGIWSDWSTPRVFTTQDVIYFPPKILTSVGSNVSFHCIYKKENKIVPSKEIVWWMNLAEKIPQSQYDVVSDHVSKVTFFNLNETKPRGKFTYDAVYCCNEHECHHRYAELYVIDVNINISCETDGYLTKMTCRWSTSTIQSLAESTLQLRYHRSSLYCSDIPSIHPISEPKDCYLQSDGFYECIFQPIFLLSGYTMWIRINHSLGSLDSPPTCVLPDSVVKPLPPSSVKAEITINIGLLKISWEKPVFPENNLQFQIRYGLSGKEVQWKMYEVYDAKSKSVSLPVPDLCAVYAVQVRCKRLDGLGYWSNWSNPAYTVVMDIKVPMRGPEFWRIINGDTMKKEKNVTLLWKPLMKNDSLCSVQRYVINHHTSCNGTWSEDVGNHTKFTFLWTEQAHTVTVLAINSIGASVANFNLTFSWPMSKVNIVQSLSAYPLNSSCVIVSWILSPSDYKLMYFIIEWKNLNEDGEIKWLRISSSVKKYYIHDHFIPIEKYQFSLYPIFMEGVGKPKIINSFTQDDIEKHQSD
Chain of wild-type human GP130 on HEK293.STAT3.Luc.GP130 reporter cells (human) (P40189 23-918): as the sequence (P40189 23-918) above
Chain of mutant human LEPR (Y1141F) on HEK293.STAT3.Luc.GP130.hLEPR (Y1141F) cells (human) (P48357 22-1165 Y1141F): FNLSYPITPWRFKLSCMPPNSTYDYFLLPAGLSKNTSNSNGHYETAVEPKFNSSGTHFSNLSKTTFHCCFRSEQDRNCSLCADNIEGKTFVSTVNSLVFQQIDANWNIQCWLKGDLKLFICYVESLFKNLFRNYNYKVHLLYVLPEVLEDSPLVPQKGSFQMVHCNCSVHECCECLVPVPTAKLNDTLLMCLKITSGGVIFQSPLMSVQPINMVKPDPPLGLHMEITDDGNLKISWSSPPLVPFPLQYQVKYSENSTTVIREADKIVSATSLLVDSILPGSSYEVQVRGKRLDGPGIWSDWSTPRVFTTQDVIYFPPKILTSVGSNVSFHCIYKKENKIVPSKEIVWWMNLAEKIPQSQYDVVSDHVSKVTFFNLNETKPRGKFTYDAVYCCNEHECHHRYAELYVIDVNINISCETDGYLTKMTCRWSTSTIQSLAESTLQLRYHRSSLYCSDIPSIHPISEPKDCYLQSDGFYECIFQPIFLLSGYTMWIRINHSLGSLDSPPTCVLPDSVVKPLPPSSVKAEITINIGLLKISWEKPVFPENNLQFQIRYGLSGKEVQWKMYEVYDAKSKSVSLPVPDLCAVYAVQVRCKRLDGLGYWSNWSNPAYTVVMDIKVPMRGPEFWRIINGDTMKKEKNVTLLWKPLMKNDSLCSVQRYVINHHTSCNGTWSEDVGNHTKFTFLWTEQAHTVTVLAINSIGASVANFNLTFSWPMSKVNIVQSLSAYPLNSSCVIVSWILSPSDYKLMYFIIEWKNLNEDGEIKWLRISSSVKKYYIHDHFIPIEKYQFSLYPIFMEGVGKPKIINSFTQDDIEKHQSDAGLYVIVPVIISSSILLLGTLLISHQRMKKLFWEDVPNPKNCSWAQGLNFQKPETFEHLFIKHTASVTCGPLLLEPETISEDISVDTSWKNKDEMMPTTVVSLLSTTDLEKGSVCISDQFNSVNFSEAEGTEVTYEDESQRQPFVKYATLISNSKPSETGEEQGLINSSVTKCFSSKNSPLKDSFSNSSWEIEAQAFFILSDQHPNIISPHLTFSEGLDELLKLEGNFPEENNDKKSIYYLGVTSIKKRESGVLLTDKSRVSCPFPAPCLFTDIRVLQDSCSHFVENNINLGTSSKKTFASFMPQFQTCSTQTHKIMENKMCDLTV

Alexa Fluor-647 conjugated secondary antibody (Jackson ImmunoResearch Laboratories Inc., #109-607-003)
Binding Ratio, normalized to unstained sample (FL4-A) [1]: 1 fold
Binding Ratio, normalized to unstained sample (FL4-A) [2]: 3 fold
Binding Ratio, normalized to unstained sample (FL4-A) [3]: 2 fold

Isotype Control (antibody)
Assay Buffer, % activity [4]: 0%
RLU, Assay Buffer (no soluble protein) [4]: 12200 RLU and 12100 RLU
Assay Buffer, % activity [5]: 0%
RLU, Assay Buffer (no soluble protein) [5]: 12200 RLU and 12100 RLU
Binding Ratio, normalized to unstained sample (FL4-A) [6]: 2 fold
Binding Ratio, normalized to unstained sample (FL4-A) [7]: 3 fold
Binding Ratio, normalized to unstained sample (FL4-A) [8]: 3 fold

human OSM (R&D Systems, #295-OM/CF) (from UniProt P13725 26-221) (ligand)
EC50 (M), STAT3-luciferase activation of HEK293.STAT3.Luc.GP130.hLEPR (Y1141F) cells [5]: 5.92e-10 M
EC50 (M), STAT3-luciferase activation of HEK293.STAT3.Luc.GP130.hLEPR (a) cells [5]: 1.21e-10 M
Percentage activation as compared to hOSM [5]: 100%
Percentage maximum activation as compared to hOSM [5]: 100%

human Oncostatin M (from UniProt P13725 26-221) (ligand)
EC50 of activation of IMR-32/STAT3-luc cells (STAT3-luciferase) [9]: 0.054 nM
